Assay results from patent US20230357348A1 (AstraZeneca / MedImmune, published 2023).
Starred links: 1 amine or outer side, 2 acyl side, 3 side chain; linkers in the order of their positions; H or OH if unused. Non-standard residues stand in square brackets, D forms with d. Groups on a side chain read outwards from the residue. No end group written: not given here. *: point of attachment. C20 diacid = O=C(O)CCCCCCCCCCCCCCCCCCC(=O)*; C18 diacid = O=C(O)CCCCCCCCCCCCCCCCC(=O)*; γGlu = O=C(O)[C@H](CCC(=O)[*:2])N[*:1]; αMeF = C[C@](N)(Cc1ccccc1)C(=O)O; AEEA = NCCOCCOCC(=O)O; Aib = CC(C)(N)C(=O)O

B1: Peptide 17 (peptide)
peptide: H[Aib]HGS[αMeF]TSDVSK[αMeF]LDSK([AEEA-AEEA-γGlu-C18 diacid])AARD[αMeF]VESIANT-NH2
modifications: N-terminus assumed
SMILES: CC[C@H](C)[C@H](NC(=O)[C@H](CO)NC(=O)[C@H](CCC(=O)O)NC(=O)[C@@H](NC(=O)[C@](C)(Cc1ccccc1)NC(=O)[C@H](CC(=O)O)NC(=O)[C@H](CCCNC(=N)N)NC(=O)[C@H](C)NC(=O)[C@H](C)NC(=O)[C@H](CCCCNC(=O)COCCOCCNC(=O)COCCOCCNC(=O)CC[C@H](NC(=O)CCCCCCCCCCCCCCCCC(=O)O)C(=O)O)NC(=O)[C@H](CO)NC(=O)[C@H](CC(=O)O)NC(=O)[C@H](CC(C)C)NC(=O)[C@](C)(Cc1ccccc1)NC(=O)[C@H](CCCCN)NC(=O)[C@H](CO)NC(=O)[C@@H](NC(=O)[C@H](CC(=O)O)NC(=O)[C@H](CO)NC(=O)[C@@H](NC(=O)[C@](C)(Cc1ccccc1)NC(=O)[C@H](CO)NC(=O)CNC(=O)[C@H](Cc1c[nH]cn1)NC(=O)C(C)(C)NC(=O)[C@@H](N)Cc1c[nH]cn1)[C@@H](C)O)C(C)C)C(C)C)C(=O)N[C@@H](C)C(=O)N[C@@H](CC(N)=O)C(=O)N[C@H](C(N)=O)[C@@H](C)O
B2: Peptide 21 (peptide)
peptide: H[Aib]HGS[αMeF]TSDVSK[αMeF]LDSK([γGlu-C18 diacid])AAQD[αMeF]VESIANT-NH2
modifications: N-terminus assumed
SMILES: CC[C@H](C)[C@H](NC(=O)[C@H](CO)NC(=O)[C@H](CCC(=O)O)NC(=O)[C@@H](NC(=O)[C@](C)(Cc1ccccc1)NC(=O)[C@H](CC(=O)O)NC(=O)[C@H](CCC(N)=O)NC(=O)[C@H](C)NC(=O)[C@H](C)NC(=O)[C@H](CCCCNC(=O)CC[C@H](NC(=O)CCCCCCCCCCCCCCCCC(=O)O)C(=O)O)NC(=O)[C@H](CO)NC(=O)[C@H](CC(=O)O)NC(=O)[C@H](CC(C)C)NC(=O)[C@](C)(Cc1ccccc1)NC(=O)[C@H](CCCCN)NC(=O)[C@H](CO)NC(=O)[C@@H](NC(=O)[C@H](CC(=O)O)NC(=O)[C@H](CO)NC(=O)[C@@H](NC(=O)[C@](C)(Cc1ccccc1)NC(=O)[C@H](CO)NC(=O)CNC(=O)[C@H](Cc1c[nH]cn1)NC(=O)C(C)(C)NC(=O)[C@@H](N)Cc1c[nH]cn1)[C@@H](C)O)C(C)C)C(C)C)C(=O)N[C@@H](C)C(=O)N[C@@H](CC(N)=O)C(=O)N[C@H](C(N)=O)[C@@H](C)O
B3: Peptide 16 (peptide)
peptide: H[Aib]HGS[αMeF]TSDVSK[αMeF]LDSK([AEEA-AEEA-γGlu-C18 diacid])AARD[αMeF]IA[Aib]IANT-NH2
modifications: N-terminus assumed
SMILES: CC[C@H](C)[C@H](NC(=O)C(C)(C)NC(=O)[C@H](C)NC(=O)[C@@H](NC(=O)[C@](C)(Cc1ccccc1)NC(=O)[C@H](CC(=O)O)NC(=O)[C@H](CCCNC(=N)N)NC(=O)[C@H](C)NC(=O)[C@H](C)NC(=O)[C@H](CCCCNC(=O)COCCOCCNC(=O)COCCOCCNC(=O)CC[C@H](NC(=O)CCCCCCCCCCCCCCCCC(=O)O)C(=O)O)NC(=O)[C@H](CO)NC(=O)[C@H](CC(=O)O)NC(=O)[C@H](CC(C)C)NC(=O)[C@](C)(Cc1ccccc1)NC(=O)[C@H](CCCCN)NC(=O)[C@H](CO)NC(=O)[C@@H](NC(=O)[C@H](CC(=O)O)NC(=O)[C@H](CO)NC(=O)[C@@H](NC(=O)[C@](C)(Cc1ccccc1)NC(=O)[C@H](CO)NC(=O)CNC(=O)[C@H](Cc1c[nH]cn1)NC(=O)C(C)(C)NC(=O)[C@@H](N)Cc1c[nH]cn1)[C@@H](C)O)C(C)C)[C@@H](C)CC)C(=O)N[C@@H](C)C(=O)N[C@@H](CC(N)=O)C(=O)N[C@H](C(N)=O)[C@@H](C)O
B4: Peptide 19 (peptide)
peptide: H[Aib]HGS[αMeF]TSDVSK[αMeF]LDSK([AEEA-AEEA-γGlu-γGlu-C18 diacid])AARD[αMeF]VQ[Aib]IANT-NH2
modifications: N-terminus assumed
SMILES: CC[C@H](C)[C@H](NC(=O)C(C)(C)NC(=O)[C@H](CCC(N)=O)NC(=O)[C@@H](NC(=O)[C@](C)(Cc1ccccc1)NC(=O)[C@H](CC(=O)O)NC(=O)[C@H](CCCNC(=N)N)NC(=O)[C@H](C)NC(=O)[C@H](C)NC(=O)[C@H](CCCCNC(=O)COCCOCCNC(=O)COCCOCCNC(=O)CC[C@H](NC(=O)CC[C@H](NC(=O)CCCCCCCCCCCCCCCCC(=O)O)C(=O)O)C(=O)O)NC(=O)[C@H](CO)NC(=O)[C@H](CC(=O)O)NC(=O)[C@H](CC(C)C)NC(=O)[C@](C)(Cc1ccccc1)NC(=O)[C@H](CCCCN)NC(=O)[C@H](CO)NC(=O)[C@@H](NC(=O)[C@H](CC(=O)O)NC(=O)[C@H](CO)NC(=O)[C@@H](NC(=O)[C@](C)(Cc1ccccc1)NC(=O)[C@H](CO)NC(=O)CNC(=O)[C@H](Cc1c[nH]cn1)NC(=O)C(C)(C)NC(=O)[C@@H](N)Cc1c[nH]cn1)[C@@H](C)O)C(C)C)C(C)C)C(=O)N[C@@H](C)C(=O)N[C@@H](CC(N)=O)C(=O)N[C@H](C(N)=O)[C@@H](C)O
B5: Peptide 20 (peptide)
peptide: H[Aib]HGS[αMeF]TSDVSK[αMeF]LDSK([AEEA-AEEA-γGlu-γGlu-C18 diacid])AARD[αMeF]VE[Aib]IANT-NH2
modifications: N-terminus assumed
SMILES: CC[C@H](C)[C@H](NC(=O)C(C)(C)NC(=O)[C@H](CCC(=O)O)NC(=O)[C@@H](NC(=O)[C@](C)(Cc1ccccc1)NC(=O)[C@H](CC(=O)O)NC(=O)[C@H](CCCNC(=N)N)NC(=O)[C@H](C)NC(=O)[C@H](C)NC(=O)[C@H](CCCCNC(=O)COCCOCCNC(=O)COCCOCCNC(=O)CC[C@H](NC(=O)CC[C@H](NC(=O)CCCCCCCCCCCCCCCCC(=O)O)C(=O)O)C(=O)O)NC(=O)[C@H](CO)NC(=O)[C@H](CC(=O)O)NC(=O)[C@H](CC(C)C)NC(=O)[C@](C)(Cc1ccccc1)NC(=O)[C@H](CCCCN)NC(=O)[C@H](CO)NC(=O)[C@@H](NC(=O)[C@H](CC(=O)O)NC(=O)[C@H](CO)NC(=O)[C@@H](NC(=O)[C@](C)(Cc1ccccc1)NC(=O)[C@H](CO)NC(=O)CNC(=O)[C@H](Cc1c[nH]cn1)NC(=O)C(C)(C)NC(=O)[C@@H](N)Cc1c[nH]cn1)[C@@H](C)O)C(C)C)C(C)C)C(=O)N[C@@H](C)C(=O)N[C@@H](CC(N)=O)C(=O)N[C@H](C(N)=O)[C@@H](C)O
B6: Peptide 18 (peptide)
peptide: H[Aib]HGS[αMeF]TSDVSK[αMeF]LDSK([AEEA-AEEA-γGlu-C18 diacid])AARD[αMeF]VQSIANT-NH2
modifications: N-terminus assumed
SMILES: CC[C@H](C)[C@H](NC(=O)[C@H](CO)NC(=O)[C@H](CCC(N)=O)NC(=O)[C@@H](NC(=O)[C@](C)(Cc1ccccc1)NC(=O)[C@H](CC(=O)O)NC(=O)[C@H](CCCNC(=N)N)NC(=O)[C@H](C)NC(=O)[C@H](C)NC(=O)[C@H](CCCCNC(=O)COCCOCCNC(=O)COCCOCCNC(=O)CC[C@H](NC(=O)CCCCCCCCCCCCCCCCC(=O)O)C(=O)O)NC(=O)[C@H](CO)NC(=O)[C@H](CC(=O)O)NC(=O)[C@H](CC(C)C)NC(=O)[C@](C)(Cc1ccccc1)NC(=O)[C@H](CCCCN)NC(=O)[C@H](CO)NC(=O)[C@@H](NC(=O)[C@H](CC(=O)O)NC(=O)[C@H](CO)NC(=O)[C@@H](NC(=O)[C@](C)(Cc1ccccc1)NC(=O)[C@H](CO)NC(=O)CNC(=O)[C@H](Cc1c[nH]cn1)NC(=O)C(C)(C)NC(=O)[C@@H](N)Cc1c[nH]cn1)[C@@H](C)O)C(C)C)C(C)C)C(=O)N[C@@H](C)C(=O)N[C@@H](CC(N)=O)C(=O)N[C@H](C(N)=O)[C@@H](C)O
B7: Peptide 22 (peptide)
peptide: H[Aib]HGS[αMeF]TSDVSK[αMeF]LDSK([AEEA-AEEA-γGlu-γGlu-C20 diacid])AAQD[αMeF]VESIANT-NH2
modifications: N-terminus assumed
SMILES: CC[C@H](C)[C@H](NC(=O)[C@H](CO)NC(=O)[C@H](CCC(=O)O)NC(=O)[C@@H](NC(=O)[C@](C)(Cc1ccccc1)NC(=O)[C@H](CC(=O)O)NC(=O)[C@H](CCC(N)=O)NC(=O)[C@H](C)NC(=O)[C@H](C)NC(=O)[C@H](CCCCNC(=O)COCCOCCNC(=O)COCCOCCNC(=O)CC[C@H](NC(=O)CC[C@H](NC(=O)CCCCCCCCCCCCCCCCCCC(=O)O)C(=O)O)C(=O)O)NC(=O)[C@H](CO)NC(=O)[C@H](CC(=O)O)NC(=O)[C@H](CC(C)C)NC(=O)[C@](C)(Cc1ccccc1)NC(=O)[C@H](CCCCN)NC(=O)[C@H](CO)NC(=O)[C@@H](NC(=O)[C@H](CC(=O)O)NC(=O)[C@H](CO)NC(=O)[C@@H](NC(=O)[C@](C)(Cc1ccccc1)NC(=O)[C@H](CO)NC(=O)CNC(=O)[C@H](Cc1c[nH]cn1)NC(=O)C(C)(C)NC(=O)[C@@H](N)Cc1c[nH]cn1)[C@@H](C)O)C(C)C)C(C)C)C(=O)N[C@@H](C)C(=O)N[C@@H](CC(N)=O)C(=O)N[C@H](C(N)=O)[C@@H](C)O

Columns and labels:
[1] = biological target: human GLP-1 receptor (hGLP-1R) (human, UniProt P43220 24-463); experiment: cell-based or functional assay
[2] = biological target: human glucagon receptor (hGCGR) (human, UniProt P47871 26-477); experiment: cell-based or functional assay
human glucagon receptor (hGCGR), sequence (P47871 26-477): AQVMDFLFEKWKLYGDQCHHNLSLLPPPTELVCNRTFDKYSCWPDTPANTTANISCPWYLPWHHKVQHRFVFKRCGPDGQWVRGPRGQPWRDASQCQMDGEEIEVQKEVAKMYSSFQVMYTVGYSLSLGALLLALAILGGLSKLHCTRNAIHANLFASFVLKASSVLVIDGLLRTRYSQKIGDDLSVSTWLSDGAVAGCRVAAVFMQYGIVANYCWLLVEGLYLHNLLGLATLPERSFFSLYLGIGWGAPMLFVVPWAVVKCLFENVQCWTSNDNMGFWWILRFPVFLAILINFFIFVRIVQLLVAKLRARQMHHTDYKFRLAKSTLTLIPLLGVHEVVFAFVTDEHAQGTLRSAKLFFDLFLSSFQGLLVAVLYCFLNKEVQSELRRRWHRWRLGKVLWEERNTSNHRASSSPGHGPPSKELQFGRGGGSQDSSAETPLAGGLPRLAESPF

| Binder | hGLP-1R EC50 (pM) [1] | hGluc-R EC50 (pM) [2] |
| --- | --- | --- |
| B1 | 45 pM | 135 pM |
| B2 | 378 pM | 68.8 pM |
| B3 | 33 pM | 105 pM |
| B4 | 38.3 pM | 133 pM |
| B5 | 152 pM | 136 pM |
| B6 | 20.5 pM | 122 pM |
| B7 | 1230 pM | 2720 pM |
